Substrate: CC(=O)SCCNC(=O)CCNC(=O)[C@H](O)C(C)(C)COP(=O)(O)OP(=O)(O)OC[C@H]1O[C@@H](n2cnc3c(N)ncnc32)[C@H](O)[C@@H]1OP(=O)(O)O
Experiment: GNA1 kinetic assay, Michaelis-Menten
Format: biochemical, Cryptosporidium parvum
Details: co-substrate GlcN-6P

B1: CpGNA1 (Cryptosporidium parvum Iowa II) (protein)
chain: MISSFEVRKATIDDYFELRNLICDVTRCTETLSREQAEERFRYNTYHPYCLVDTENGRIVGYAGFYIIPHLGRKNDSRIEHVIISKEYRNRGLGRLLCKQIIEDAKNKFNCGRIDLTVESHIAKKLYSSLEFEKVNTEVMRNSFLDLTPKSD
B1 was tested, and the Km was 241.7 ± 35.3 µM.
